Ends that are not written are not given here. Y‑shaped mPEG40KD = Y-shaped methoxy-PEG of 40 kDa attached to the Lys side chain; mPEG40KD = methoxy-PEG of 40 kDa
Biological target: amylin receptor of rat nucleus accumbens membranes (rat)
Experiment: competition with 125I-rat amylin, rat nucleus accumbens membranes

Sequence of amylin receptor of rat nucleus accumbens membranes (rat) (P32214 other isoform, or with tags, fused parts or gaps, chain 1 of 2): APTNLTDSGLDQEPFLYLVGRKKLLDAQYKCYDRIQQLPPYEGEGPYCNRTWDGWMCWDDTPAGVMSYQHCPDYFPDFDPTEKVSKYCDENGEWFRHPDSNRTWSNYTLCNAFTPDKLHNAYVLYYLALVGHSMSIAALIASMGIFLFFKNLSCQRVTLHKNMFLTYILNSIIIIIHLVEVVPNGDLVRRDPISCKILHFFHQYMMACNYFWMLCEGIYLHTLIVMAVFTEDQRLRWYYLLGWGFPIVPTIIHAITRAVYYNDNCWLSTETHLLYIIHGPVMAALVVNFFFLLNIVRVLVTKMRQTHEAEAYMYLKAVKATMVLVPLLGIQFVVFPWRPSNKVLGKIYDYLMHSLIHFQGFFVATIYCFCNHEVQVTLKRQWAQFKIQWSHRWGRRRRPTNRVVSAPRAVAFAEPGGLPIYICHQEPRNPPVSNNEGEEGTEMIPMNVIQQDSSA
Sequence of amylin receptor of rat nucleus accumbens membranes (rat) (Q9JJ74 27-148, chain 2 of 2, further chain): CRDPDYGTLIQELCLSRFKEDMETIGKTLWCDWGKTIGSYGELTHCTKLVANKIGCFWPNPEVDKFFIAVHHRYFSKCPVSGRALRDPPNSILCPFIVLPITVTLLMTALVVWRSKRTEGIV

IC50 [nM]	Binder
0.42	CNTATCATQRLANFLVRSSNNLGPVLPPTNVGSNTY-NH2 (ends and bridges not checked) [[des-Lys^1]-Cmpd 49]
66	KCNTATCATQRLANFLVRSSNNLGPK(mPEG40KD)LPPTNVGSNTY-NH2 (ends and bridges not checked) [[K^26(mPEG40KD)]-Cmpd 53]
78	mPEG40KD-CNTATCATQRLANFLVRSSNNLGPVLPPTNVGSNTY-NH2 (ends and bridges not checked) [mPEG40KD-Cmpd 50]
470	KCNTATCATQRLANFLVRSSNNLGPK(Y‑shaped mPEG40KD)LPPTNVGSNTY-NH2 (ends and bridges not checked) [[K^26(Y-shaped-mPEG40KD)]-Cmpd 53]
